Test results reported in patent US7709240B2, “AMP deaminase originating streptomyces and utilization thereof” (Amano Enzyme Inc., priority 2004, dated 2010).
Entries after “also recorded” stand apart in the source; their conditions may differ.

What was measured:
[1] = Feasibility test 1: nuclease and deaminase treatment of yeast lysate carried out independently; details: after nuclease treatment; deaminase at 50° C., pH 6, 5 hours
Method: In test 1, similar to the current production method, treatment with nuclease and treatment with deaminase were carried out independently. Specifically, the treatment was carried out by the following procedure and the IMP conversion rate was calculated. Firstly, nuclease “AMANO” G (Amano Enzyme Inc., 0.1% w/w yeast solid) was added to yeast lysate (YL-15, 0.2%) and they were reacted with each other under the conditions at a temperature of 70° C. and pH 5 for 3 hours. Then, “Deamizyme (50,000 u/mg product) (trade name of Amano Enzyme Inc., 0.01 to 0.04% w/w yeast solid)” that is an AMP deaminase agent derived from the test enzyme (Aspergillus melleus), or a crude enzyme solution prepared from Streptomyces murinus was added and reacted with each other under the conditions at a temperature of 50° C. and pH 6 for 5 hours. Then, the reacted product was heat treated, and then subjected to HPLC analysis. Note here that added amount of AMP deaminase derived from Streptomyces murinus was set so that the activity value thereof became the same as that of “Deamizyme (50,000 u/mg product)” (trade name, Amano Enzyme Inc.)

[2] = Contaminated phosphatase activity; type: biochemical; details: 37° C., pH 5.6
Method: To 1.5 ml of solution obtained by mixing 0.025M 5′IMP-2Na and 0.036M barbital sodium-hydrochloric acid buffer solution (pH 5.6) at the ratio of 1:2, 0.5 ml of sample solution was added so as to obtain a reaction solution, which was reacted at 37° C. for 30 minutes. After the reaction was completed, 200 μl of the solution was taken out, and 5 ml of 6% perchloric acid solution was added so as to stop the reaction. Amidol solution (0.05M, 0.25 ml) was added and mixed, followed by adding and mixing 0.25 ml of 0.067 M ammonium molybdate solution, and further adding and mixing 0.25 ml of water, which was allowed to stand in flowing water for 15 minutes. Then, OD265 was measured. A value similarly measured at the reaction time of 0 minute was defined as a blank. Under the above-mentioned conditions, a case where an absorbance difference is reduced by 0.001 during 30 minutes was defined as one unit.
The contaminated phosphatase activities concerning Aspergillus melleus and Streptomyces murinus were measured. In Aspergillus melleus, the contamination activity was observed. On the other hand, in Streptomyces murinus, the phosphatase activity was not observed.

[3] = Thermostability of purified enzyme: residual activity after 30 minutes at each temperature; type: physicochemical
Method: (§1) By using the decrease of OD265 at the time of reaction as an index, the enzyme activity was measured. To 1.5 ml of solution obtained by mixing 0.017M 5′ AMP-2Na and 1/15M phosphate buffer solution (pH 5.6) at the ratio of 1:2, 0.5 ml of sample solution was added so as to obtain a reaction solution, which was reacted at 37° C. for 15 minutes. Then, 2% perchloric acid solution was added so as to stop the reaction and 100 μl of the solution was taken out. Water was added to the solution so that the total amount was 5 ml. Then, OD265 was measured. The value similarly measured at reaction time of 0 minute was defined as a blank. Under the above-mentioned conditions, a case where an absorbance difference is reduced by 0.001 during 60 minutes was defined as one unit.
Subsequently, the thermostability of the enzyme was examined by the following procedure. An enzyme solution (0.15 ml) containing 2.8 μg protein (total amount) was adjusted to pH 5.6 by using acetate buffer (pH 5.0), and then treated for 30 minutes at each temperature (40° C., 50° C., 60° C., 65° C., 70° C., and 75° C.). Then, the residual activity (percent with respect to the enzyme activity in the case where the treatment was not carried out) was measured. At 65° C. or less, about 90% or more of activity is maintained. Furthermore, also when the treatment is carried out at 70° C., about 55% of the activity is maintained.

[4] = Relation between reaction temperature and activity of purified enzyme; type: biochemical; details: reaction temperature 75° C.; activity at 65° C. = 100%
Method: as §1
The relation between the reaction temperature and activity of the obtained purified enzyme was examined. […] As is apparent from the graph of FIG. 7 (a), high activity is observed in the wide range from 40° C. to 70° C. Furthermore, even in the case where the reaction temperature is 75° C., about 50% activity is found. Thus, it is shown that the enzyme acts favorably under the wide range of temperatures.

[5] = Substrate specificity; type: biochemical
[6] = Feasibility test 2: nuclease and deaminase treatment of yeast lysate carried out simultaneously; details: simultaneously with nuclease, 70° C., pH5, 3 hours or 5 hours
Method: In test 2, treatment with nuclease and treatment with deaminase were carried out simultaneously. Specifically, the treatment was carried out by the following procedure and the IMP conversion rate was calculated. Firstly, nuclease “AMANO” G (Amano Enzyme Inc., 0.1% w/w yeast solid) and “Deamizyme (50,000 units) (trade name of Amano Enzyme Inc., 0.01 to 0.04% w/w yeast solid)” that is an AMP deaminase agent derived from the test enzyme (Aspergillus melleus) or a crude enzyme solution prepared by using Streptomyces murinus were added to yeast lysate (YL-15, 0.2%) and they were reacted with yeast lysate under the conditions at a temperature of 70° C. and pH5 for a predetermined time (3 hours or 5 hours). Then, the reacted product was heat treated, and then subjected to HPLC analysis. Note here that added amount of AMP deaminase derived from Streptomyces murinus was set so that the activity value thereof became the same as that of “Deamizyme (50,000 u/mg product)” (trade name, Amano Enzyme Inc.)

B1: AMP deaminase derived from Streptomyces murinus: thermostable AMP deaminase enzyme produced by Streptomyces murinus IFO14802; amino acid sequence SEQ ID NO: 1 (protein, listed as Streptomyces murinus)
chain: APPPRQATAAEARTDAYLRSVKDRPAALRAFFRQLPKGGDLHNHLSGAVNTDYLIELAAEDGLCIDATMTAVPSPCGPGTRPAADARTDRAFHDAIVRAWSMQDFPPDENGHDHFFDTFGKFGEVTWRHRGKLLAQVADTVVANNQSYLETMVTPASDGAKQLADQVGWDADLTALHRKLAAGGKLDKLVADARKEADDGDAEFRATEHCGTAKARPACGLTVRWISQASRGSSPVRVFTQLDLGMRLAEADSRFVAVNLVQPEDWDSSLENYSLQMRMVGYLRTVYPKAHVTLHAGELWPGLVKPEALKFHIAEAVDIAHTQRVGHGVDLVHEDNWQRTARTMAARQIAVEVPFSSNAQILGVKGAEHPFTTYRRYGVPVVLATDDPGVSRIDISHEYQYAAATYGLGYPELKDLARASLQYAFLPGASLWQGNPTAQGYHPVAACRAERPGQPVHSAACRRLLDGSARARLEWRQEAAFAAFERAHARG
In the case of B1, the “IMP conversion rate compared with AMP deaminase derived from Aspergillus melleus” value [1] is reported as “equivalent”, the contaminated phosphatase activity [2] is reported as “not observed; also recorded: not detected” and the “temperature stability (stable at)” value ([3]; acetate buffer solution (pH 5.6)) is reported as at most 65 °C. The residual activity ([3]; treated at 70° C. for 30 minutes, pH 5.6 acetate buffer, untreated = 100%) was “about 55%”, the relative activity [4] was “about 50%” and the “action on substrate 5′-CMP” value [5] was “did not act on”. The IMP production [6] was “IMP was produced”.
